Source: the RNAGym collection of RNA variant scans (doi:10.7554/elife.80360)

B1: HDV Ribozyme (parent)
chain: GGCCGGCAUGGUCCCAGCCUCCUCGCUGGCGCCGGCUGGGCAACAUUCCGAGGGGACCGUCCCCUCGGUAAUGGCGAAUGGGACCCA

Variants of: B1
Experiment: self-cleavage, relative activity (ratio to wild type); higher = more cleavage; co-transcriptional

Variant | self-cleavage
GGCCGGCAUGGUCCCAGCCUCCUCGCUGGCGCCGGCUGGGCAACAUUCCGAGGGGGGCGUCCCCUCGGUAAUGGCGAAUGGGACCCA | 0.8
GGCCGGCAUGGUCCCAGCCUCCUCGCUGGCGCCGGCUGGGCAACAUUCCGAGGGGGACGUCCCCUCGGUAAUGGCGAAUGGGACCCA | 0.847
GGCCGGCAUGGUCCCAGCCUCCUCGCUGGCGCCGGCUGGGCAACAUUCCGAGGGUACCGCCCCCUCGGUAAUGGCGAAUGGGACCCA | 1.11
GGCCGGCAUGGUCCCAGCCUCCUCGCUGGCGCCGGCUGGGCAACAUUCCGAGGGUACCGGCCCCUCGGUAAUGGCGAAUGGGACCCA | 1.12
GGCCGGCAUGGUCCCAGCCUCCUCGCUGGCGCCGGCUGGGCAACAUUCCGAGGGGCACGUCCCCUCGGUAAUGGCGAAUGGGACCCA | 1.22
GGCCGGCAUGGUCCCAGCCUCCUCGCUGGCGCCGGCUGGGCAACAUUCCGAGGGGCGCGUCCCCUCGGUAAUGGCGAAUGGGACCCA | 0.978
GGCCGGCAUGGUCCCAGCCUCCUCGCUGGCGCCGGCUGGGCAACAUUCCGAGGGGCCCGUCCCCUCGGUAAUGGCAAAUGGGACCCA | 1.17
GGCCGGCAUGGUCCCAGCCUCCUCGCUGGCGCCGGCUGGGCAACAUUCCGAGGGGCCCGUCCCCUCGGUAAUGGCCAAUGGGACCCA | 1.06
GGCCGGCAUGGUCCCAGCCUCCUCGCUGGCGCCGGCUGGGCAACAUUCCGAGGGGGCCGUGCCCUCGGUAAUGGCGAAUGGGACCCA | 1.12
GGCCGGCAUGGUCCCAGCCUCCUCGCUGGCGCCGGCUGGGCAACAUUCCGAGGGGGCCGUACCCUCGGUAAUGGCGAAUGGGACCCA | 0.849
GGCCGGCAUGGUCCCAGCCUCCUCGCUGGCGCCGGCUGGGCAACAUUCCGAGGGGGCCGUCCACUCGGUAAUGGCGAAUGGGACCCA | 0.831
GGCCGGCAUGGUCCCAGCCUCCUCGCUGGCGCCGGCUGGGCAACAUUCCGAGGGGGCCGUCCCCUCGGUAAUGUCGAAUGGGACCCA | 0.564
GGCCGGCAUGGUCCCAGCCUCCUCGCUGGCGCCGGCUGGGCAACAUUCCGAGGGGGCCGUCCCCUCGGUCAUGGCGAAUGGGACCCA | 0.935
GGCCGGCAUGGUCCCAGCCUCCUCGCUGGCGCCGGCUGGGCAACAUUCCGAGGGGGCCGUCCCCUCGGUGAUGGCGAAUGGGACCCA | 1.14
GGCCGGCAUGGUCCCAGCCUCCUCGCUGGCGCCGGCUGGGCAACAUUCCGAGGGGCCCGUCCCCUCGGUAAUGGCGAAUGGGACGCA | 1.04
GGCCGGCAUGGUCCCAGCCUCCUCGCUGGCGCCGGCUGGGCAACAUUCCGAGGGGCCCGUCCCCUCGGUAAUGGCGAAUGGGACUCA | 1.01
GGCCGGCAUGGUCCCAGCCUCCUCGCUGGCGCCGGCUGGGCAACAUUCCGAGGGGCCCGUCCCCUCGGUAAUGGCGAAUGGGACACA | 0.806
GGCCGGCAUGGUCCCAGCCUCCUCGCUGGCGCCGGCUGGGCAACAUUCCGAGGGGCCCCUCCCCUCGGUAAUGGCGAAUGGGACCCA | 1.05
GGCCGGCAUGGUCCCAGCCUCCUCGCUGGCGCCGGCUGGGCAACAUUCCGAGGGGGCCGUCCCCUCUGUAAUGGCGAAUGGGACCCA | 0.997
GGCCGGCAUGGUCCCAGCCUCCUCGCUGGCGCCGGCUGGGCAACAUUCCGAGGGGGCGGUCCCCUCGGUAAUGGCGAAUGGGACCCA | 0.911
GGCCGGCAUGGUCCCAGCCUCCUCGCUGGCGCCGGCUGGGCAACAUUCCGAGGGGCCCGUCCCCUCGCUAAUGGCGAAUGGGACCCA | 0.486
GGCCGGCAUGGUCCCAGCCUCCUCGCUGGCGCCGGCUGGGCAACAUUCCGAGGGGCCCGCCCCCUCGGUAAUGGCGAAUGGGACCCA | 0.98

Variant | self-cleavage
GGCCGGCAUGGUCCCAGCCUCCUCGCUGGCGCCGGCUGGGCAACAUUCCGAGGGGGCCGUCCCCUCGGUAAUGGCUAAUGGGACCCA | 1.22
GGCCGGCAUGGUCCCAGCCUCCUCGCUGGCGCCGGCUGGGCAACAUUCCGAGGGGCCCGUCCCCUCGGUAAUGGCGAAUGGUACCCA | 0.404
GGCCGGCAUGGUCCCAGCCUCCUCGCUGGCGCCGGCUGGGCAACAUUCCGAGGGGCCCGUCCCCUCGGUAAUGGCGAAUGGAACCCA | 0.684
GGCCGGCAUGGUCCCAGCCUCCUCGCUGGCGCCGGCUGGGCAACAUUCCGAGGGGGCCGUCCCCUCGGUAUUGGCGAAUGGGACCCA | 0.957
GGCCGGCAUGGUCCCAGCCUCCUCGCUGGCGCCGGCUGGGCAACAUUCCGAGGGGGCCGUCCCCUCGGUAGUGGCGAAUGGGACCCA | 0.918
GGCCGGCAUGGUCCCAGCCUCCUCGCUGGCGCCGGCUGGGCAACAUUCCGAGGGGCCUGUCCCCUCGGUAAUGGCGAAUGGGACCCA | 1.07
GGCCGGCAUGGUCCCAGCCUCCUCGCUGGCGCCGGCUGGGCAACAUUCCGAGGGGCCCGUCCCCUCGGUAAUGCCGAAUGGGACCCA | 0.312
GGCCGGCAUGGUCCCAGCCUCCUCGCUGGCGCCGGCUGGGCAACAUUCCGAGGGGGCCGUCCCCUGGGUAAUGGCGAAUGGGACCCA | 1.01
GGCCGGCAUGGUCCCAGCCUCCUCGCUGGCGCCGGCUGGGCAACAUUCCGAGGGGCCCGUCCCCUCGGUAAUGGCGAAUGGGGCCCA | 1.01
GGCCGGCAUGGUCCCAGCCUCCUCGCUGGCGCCGGCUGGGCAACAUUCCGAGGGGCCCGUCCCCUCGGUAAUGGCGCAUGGGACCCA | 0.482
GGCCGGCAUGGUCCCAGCCUCCUCGCUGGCGCCGGCUGGGCAACAUUCCGAGGGGCCCGUCCCCUCGGUAAUGGCGAAUGGGACCAA | 0.87
GGCCGGCAUGGUCCCAGCCUCCUCGCUGGCGCCGGCUGGGCAACAUUCCGAGGGGCCCGUCCCCUCGGUAAUGGCGAAUGGGACCGA | 0.804
GGCCGGCAUGGUCCCAGCCUCCUCGCUGGCGCCGGCUGGGCAACAUUCCGAGGGGGCCGUCCCCACGGUAAUGGCGAAUGGGACCCA | 0.867
GGCCGGCAUGGUCCCAGCCUCCUCGCUGGCGCCGGCUGGGCAACAUUCCGAGGGGGCCGUCCCCGCGGUAAUGGCGAAUGGGACCCA | 0.957
GGCCGGCAUGGUCCCAGCCUCCUCGCUGGCGCCGGCUGGGCAACAUUCCGAGGGGCCCGUCCCCUAGGUAAUGGCGAAUGGGACCCA | 1.21
GGCCGGCAUGGUCCCAGCCUCCUCGCUGGCGCCGGCUGGGCAACAUUCCGAGGGGGCCGUCCCCUCGGUAAUGGCGAAUGUGACCCA | 0.332
GGCCGGCAUGGUCCCAGCCUCCUCGCUGGCGCCGGCUGGGCAACAUUCCGAGGGGGCCCUCCCCUCGGUAAUGGCGAAUGGGACCCA | 1.3
GGCCGGCAUGGUCCCAGCCUCCUCGCUGGCGCCGGCUGGGCAACAUUCCGAGGGGGCCGUCCCCUCGGUAAUGGCGAAUCGGACCCA | 0.259
GGCCGGCAUGGUCCCAGCCUCCUCGCUGGCGCCGGCUGGGCAACAUUCCGAGGGGGCCGUCCCCUCGGUAAUGGCGAAUAGGACCCA | 0.32
GGCCGGCAUGGUCCCAGCCUCCUCGCUGGCGCCGGCUGGGCAACAUUCCGAGGGGCCCGUCCCCUCGGUAAUGGCGAACGGGACCCA | 0.379
GGCCGGCAUGGUCCCAGCCUCCUCGCUGGCGCCGGCUGGGCAACAUUCCGAGGGUACCGUCCCCUCGGUAAUGGCGAAUGGAACCCA | 0.467
GGCCGGCAUGGUCCCAGCCUCCUCGCUGGCGCCGGCUGGGCAACAUUCCGAGGGUACCGUCCCCUCGGUAAUGGCGAAGGGGACCCA | 0.591

Variant | self-cleavage
GGCCGGCAUGGUCCCAGCCUCCUCGCUGGCGCCGGCUGGGCAACAUUCCGAGGGGCCCGUCCCCUCGGUAAUGGCGAAUGGGACCCG | 0.846
GGCCGGCAUGGUCCCAGCCUCCUCGCUGGCGCCGGCUGGGCAACAUUCCGAGGGGGCCGUCCCCUCGGUAAUGGCGAAUGGGACCAA | 0.718
GGCCGGCAUGGUCCCAGCCUCCUCGCUGGCGCCGGCUGGGCAACAUUCCGAGGGGGCCGUCCCCUCGGUAAUGGCGUAUGGGACCCA | 0.739
GGCCGGCAUGGUCCCAGCCUCCUCGCUGGCGCCGGCUGGGCAACAUUCCGAGGGGCCCGUCCCCUCGGUAAUGGCGAAUGGGAGCCA | 0.755
GGCCGGCAUGGUCCCAGCCUCCUCGCUGGCGCCGGCUGGGCAACAUUCCGAGGGGCCCGUCCCCUCGGUAAGGGCGAAUGGGACCCA | 0.383
GGCCGGCAUGGUCCCAGCCUCCUCGCUGGCGCCGGCUGGGCAACAUUCCGAGGGGGCCGUCCCGUCGGUAAUGGCGAAUGGGACCCA | 0.791
GGCCGGCAUGGUCCCAGCCUCCUCGCUGGCGCCGGCUGGGCAACAUUCCGAGGGGCCCGUACCCUCGGUAAUGGCGAAUGGGACCCA | 1.13
GGCCGGCAUGGUCCCAGCCUCCUCGCUGGCGCCGGCUGGGCAACAUUCCGAGGGGGCCGUCCCCUCGGUAAUGGCGAAUGGCACCCA | 0.193
GGCCGGCAUGGUCCCAGCCUCCUCGCUGGCGCCGGCUGGGCAACAUUCCGAGGGGGCCGUCCCCUCGGUAAUAGCGAAUGGGACCCA | 0.749
GGCCGGCAUGGUCCCAGCCUCCUCGCUGGCGCCGGCUGGGCAACAUUCCGAGGGGCCCGUCCCCUCGGUAAUGGCGAAUGAGACCCA | 0.415
GGCCGGCAUGGUCCCAGCCUCCUCGCUGGCGCCGGCUGGGCAACAUUCCGAGGGGCCCGUCCCCUCGGUAAUGGCGAAUGCGACCCA | 0.266
GGCCGGCAUGGUCCCAGCCUCCUCGCUGGCGCCGGCUGGGCAACAUUCCGAGGGGGCCGUCCCCUCGGUAAUGGCGAAGGGGACCCA | 0.65
GGCCGGCAUGGUCCCAGCCUCCUCGCUGGCGCCGGCUGGGCAACAUUCCGAGGGUACCGUCCCCUCGGUAAAGGCGAAUGGGACCCA | 0.648
GGCCGGCAUGGUCCCAGCCUCCUCGCUGGCGCCGGCUGGGCAACAUUCCGAGGGGCCCGUCCCCUCAGUAAUGGCGAAUGGGACCCA | 1.05
GGCCGGCAUGGUCCCAGCCUCCUCGCUGGCGCCGGCUGGGCAACAUUCCGAGGGGGCCGUCCCCUCGGUAAUGGCGACUGGGACCCA | 0.203
GGCCGGCAUGGUCCCAGCCUCCUCGCUGGCGCCGGCUGGGCAACAUUCCGAGGGGGCCGUCCCCUCGGUAAUGGCGAUUGGGACCCA | 0.181
GGCCGGCAUGGUCCCAGCCUCCUCGCUGGCGCCGGCUGGGCAACAUUCCGAGGGUACCGUCCCCCCGGUAAUGGCGAAUGGGACCCA | 0.73
GGCCGGCAUGGUCCCAGCCUCCUCGCUGGCGCCGGCUGGGCAACAUUCCGAGGGGGCCGUCCCCUCGCUAAUGGCGAAUGGGACCCA | 1.01
GGCCGGCAUGGUCCCAGCCUCCUCGCUGGCGCCGGCUGGGCAACAUUCCGAGGGGGCCGUCCCCUCGUUAAUGGCGAAUGGGACCCA | 1.18
GGCCGGCAUGGUCCCAGCCUCCUCGCUGGCGCCGGCUGGGCAACAUUCCGAGGGGCCCGUCCCCACGGUAAUGGCGAAUGGGACCCA | 0.955
